We go through 1 substance from US20230183347A1.

In this experiment the target is human PD-1 (hPD-1) expressed on T cells (DO11.10 T cell hybridomas, DO11.10 mouse CD4+ T cells, activated human CD4+ T cells) (human) (UniProt Q15116). The experiment in a line: cell-based or functional assay.
Sequence of UniProt Q15116 (Q15116 25-288 limits assumed): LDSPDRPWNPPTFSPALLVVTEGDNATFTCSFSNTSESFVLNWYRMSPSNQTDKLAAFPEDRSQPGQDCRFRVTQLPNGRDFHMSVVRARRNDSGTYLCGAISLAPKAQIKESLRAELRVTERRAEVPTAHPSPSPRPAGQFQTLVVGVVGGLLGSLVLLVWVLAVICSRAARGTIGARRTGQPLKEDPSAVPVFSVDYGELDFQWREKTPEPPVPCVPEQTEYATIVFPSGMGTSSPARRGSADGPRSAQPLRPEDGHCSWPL

In turn, “anti-human PD-1 antibody (clone: J116, Invitrogen)” returned an IC50 of inhibitory activity on IL-2 production of 1 µg/mL.
